# Assay results from paper PMC5815017.
# pKd: −log10 of the molar value.
# Legend:
# [1] = biological target: T1, Spo0J (ParB) (Bacillus subtilis) (UniProt P26497); assay: SPR; conditions: apparent Kd; SPR (ReDCaT, Biacore T200), HBS-EP+: 10 mM HEPES pH 7.4, 150 mM NaCl, 3 mM EDTA, 0.005% Surfactant P20, 25 C; ParB given as dimer
# T1 sequence: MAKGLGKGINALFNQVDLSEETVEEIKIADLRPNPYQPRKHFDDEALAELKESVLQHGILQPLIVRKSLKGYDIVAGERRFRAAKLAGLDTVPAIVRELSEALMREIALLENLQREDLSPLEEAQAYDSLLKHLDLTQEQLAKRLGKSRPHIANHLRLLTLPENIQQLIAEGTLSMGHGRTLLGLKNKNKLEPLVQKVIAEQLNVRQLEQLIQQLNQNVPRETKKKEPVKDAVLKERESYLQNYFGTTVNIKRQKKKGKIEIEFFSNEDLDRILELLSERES
# [2] = biological target: T2, ParB (Caulobacter crescentus) (UniProt B8GW30); assay: SPR; conditions: value assigned by figure order; SPR (ReDCaT, Biacore T200), HBS-EP+: 10 mM HEPES pH 7.4, 150 mM NaCl, 3 mM EDTA, 0.005% Surfactant P20, 25 C; ParB given as dimer
# T2 sequence: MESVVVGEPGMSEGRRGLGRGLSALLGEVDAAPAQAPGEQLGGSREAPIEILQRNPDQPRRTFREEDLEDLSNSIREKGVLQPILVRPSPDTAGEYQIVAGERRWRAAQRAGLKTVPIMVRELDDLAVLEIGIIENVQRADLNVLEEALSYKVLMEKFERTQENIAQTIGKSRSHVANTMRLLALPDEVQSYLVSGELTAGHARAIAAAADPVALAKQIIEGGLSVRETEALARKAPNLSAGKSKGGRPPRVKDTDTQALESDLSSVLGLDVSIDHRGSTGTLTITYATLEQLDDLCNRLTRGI
sequence,measurement,setting,value
AGAATGTTCCACGTGAAACAAAGA / TCTTTGTTTCACGTGGAACATTCTCCTACCCTACGTCCTCCTGC [B. subtilis parS 359],pKd,[1],6.94
CGATGTTTCCACGTGAAACAAGGC / GCCTTGTTTCACGTGGAAACATCGCCTACCCTACGTCCTCCTGC [parS site 7],pKd,[2],6.84
